# Measured values as given in patent US20130116412.
# Tests used:
# [1] = test system: GST-(PPG)5, fusion of glutathione S-transferase and (Pro-Pro-Gly)5 with an intervening thrombin cleavage site
# Ac-GFPG-NH2 = test system: T1, Ac-GFPG-NH2
# T1 sequence: GFPG
# Sequence of GST-(PPG)5, fusion of glutathione S-transferase and (Pro-Pro-Gly)5 with an intervening thrombin cleavage site (chain, as listed by the source): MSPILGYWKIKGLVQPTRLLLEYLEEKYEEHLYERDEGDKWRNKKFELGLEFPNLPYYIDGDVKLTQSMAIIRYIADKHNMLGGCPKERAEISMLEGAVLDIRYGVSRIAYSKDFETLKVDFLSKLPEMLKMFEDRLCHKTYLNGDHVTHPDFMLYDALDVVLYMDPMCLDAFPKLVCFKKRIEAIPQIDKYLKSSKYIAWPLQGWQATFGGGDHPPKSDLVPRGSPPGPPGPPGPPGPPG
substance,measurement,setting,value
"human prolyl-4-hydroxylase (P4H), full-length tetramer produced from plasmid pBK1.PDI1.P4H7","in vitro hydroxylation of proline residues, MALDI-TOF of the cleaved peptide",[1],up to 3 hydroxyproline residues were produced in the (PPG)5 peptide after incubation with P4H
same,"in vitro hydroxylation of proline, MALDI-TOF / LC-MS",Ac-GFPG-NH2,The positive control showed that the proline residue in Ac-GFPG-NH2 was hydroxylated.
